{
  "source": "patent US20040259196A1",
  "about": "“T cell receptor variants expressed in mesenchymal cells and uses thereof” (priority 2001, published 2004)",
  "key": {"[1]": {"system": "anti-peptide SEQ ID NO:37 antibody", "experiment": "Competition of antibody binding by pre-incubation with the immunizing peptide", "set-up": "species or system rabbit", "details": "pre-incubation of purified immune serum with soluble peptide, 30 min, room temperature", "from_the_text": "FIGS. 2A-2F show flow cytometric analysis of J^intJ-Cβ2 expression by mesenchymal cells. Mouse embryonic fibroblasts (MEF) (2E) and different MBA-13 cell strains (1-3; 2A-2C, respectively) were stained with preimmunized (histogram I) or immunized (histogram II) purified antibodies from rabbit serum. The rabbits were immunized with a synthetic segment of SEQ ID NO:2, namely SEQ ID NO:37, with the sequence LAEPRGFVCGVE. As a second antibody, we used Fab FITC conjugated donkey anti-rabbit IgG. Staining with second antibody only gave a histogram shown in histogram III. Cells stained with rabbit polyclonal antibodies to irrelevant peptide 1121 of the sequence RGGGGGRGGLHD, similarly produced and purified, served as negative control (histogram IV). Competition of antibody binding was performed by pre-incubation of the purified immune serum with the specific immunizing peptide SEQ ID NO:37 for 30 min at room temperature (2D, histogram). Competition with irrelevant peptide 1121 served as negative control (data not shown). The results of one experiment, out of three performed, are shown.\nThis strongly supports the conclusion that J^int-Jβ2.6-C protein is present on the surface of the MBA-13 cells. It is noteworthy that thymocytes do express J^int-Jβ2.6-C on the mRNA level but are not reactive with the antibody (FIGS. 2F and 3). […]"}, "[2]": {"target": "J^int-Jβ2.6-C protein (truncated mesenchymal TCRβ lacking the V region) (mouse)", "experiment": "flow cytometry on MBA-13 cells"}, "[3]": {"system": "293T cells", "experiment": "Cell cycle flow cytometric analysis of transfected 293T cells", "format": "cell-based, human", "details": "293T cells co-transfected with pTα", "from_the_text": "FIG. 13 Recombinant mesenchymal TCRβ (GFP-J^int-Jβ2.6-C) in a preTCR-like complex causes apoptotic cell death upon overexpression. (A) Immunofluorescence analysis of cells transfected with cDNA constructs encoding a fusion protein of J^int-Jβ2.6-C linked to GFP, together with pTα HA vector. (B) Western blot analysis of extracts from 293T cells transfected with GFP-J^int-Jβ2.6-C together with HA-pTα (lane 1). Control GFP and HA vectors (lane 2), GFP vector and HA-pTα0 (lane 3), HA vector and GFP-J^int-Jβ2.6-C (lane 4) and untransfected cells (lane 5). Immunoblotting was performed with an anti-GFP monoclonal antibody. The position of the fusion protein, GFP-J^int-Jβ2.6-C is indicated (GFP-J^int) as is the position of GFP free protein (GFP). (C) Cell cycle flow cytometric analysis of 293T cells transfected with the indicated vectors. The cell cycle analysis of GFP negative cells that were treated with GFP-J^int-Jβ2.6-C and pTα but remained untransfected (C-I) serves as a representative control; similar patterns were observed following transfection with empty vectors or separately with GFP-J^int-Jβ2.6-C and pTα. […]\nNext, we examined the results of overexpression of J^int-Jβ2.6-Cβ. A cDNA construct encoding a fusion protein of J^int-Jβ2.6-C N-terminally linked to green fluorescence protein (GFP) was transfected along with pTα into human 293T cells (FIG. 13). […]"}},
  "data": [
    {"molecule": "LAEPRGFVCGVE (listed as Mus musculus) [immunizing peptide]", "values": [
      {"measurement": "competition of antiserum staining of MBA-13 cells", "setting": "[1]", "value": "reduced the ability of the antiserum to stain the cells"}
    ]},
    {"molecule": "hamster anti-mouse TCRβ monoclonal antibody, clone H57-597", "values": [
      {"measurement": "percent of the cell population stained", "setting": "[2]", "value": 34, "unit": "%"}
    ]},
    {"molecule": "GFP-J^int-Jβ2.6-Cβ: fusion protein of J^int-Jβ2.6-C N-terminally linked to green fluorescence protein (GFP), expressed from a cDNA construct (protein, left off: large carriers, fusion protein of J^int-Jβ2.6-C N-terminally linked to green fluorescence protein (GFP), expressed from a cDNA construct) MGEYLAEPRGFVCGVEPLCSYEQYFGPGTRLTVLEDLRNVTPPKVSLFEPSKAEIANKQKATLVCLARGFFPDHVELSWWVNGKEVHSGVSTDPQAYKESNYSYCLSSRLRVSATFWHNPRNHFRCQVQFHGLSEEDKWPEGSPKPVTQNISAEAWGRADCGITSASYHQGVLSATILYEILLGKATLYAVLVSGLVLMAMVKKKNS", "values": [
      {"measurement": "shift of the population to sub-G1, indicating massive apoptosis", "setting": "[3]", "value": 59, "unit": "%"}
    ]}
  ]
}
